Assay results taken from patent US20220249649A1 (ECOLE POLYTECHNIQUE FEDERALE DE LAUSANNE, published 2022).

Molecular target: T1, D25 antibody (IgG)
T1 construct: RSVF site 0 neutralising antibody, human IgG1 vector; The IgG was immobilised on the SPR chip; PDB 4JHW is cited; also called nAb D25
Assay: not stated (comparison value, FIG. 18 cited)

B1: prefusion stabilized RSVF (sc9-10 DS-Cav1 A149C Y458C S46G E92D S215P K465Q variant, DS2) (other)
chain: QNITEEFYQSTCSAVSKGYLGALRTGWYTSVITIELSNIKENKCNGTDAKVKLIKQELDKYKNAVTDLQLLMQSTPPTNNGSGSAICSGVAVCKVLHLEGEVNKIKSALLSTNKAVVSLSNGVSVLTFKVLDLKNYIDKQLLPILNKQSCSIPNIETVIEFQQKNNRLLEITREFSVNAGVTTPVSTYMLTNSELLSLINDMPITNDQKKLMSNNVQIVRQQSYSIMCIIKEEVLAYVVQLPLYGVIDTPCWKLHTSPLCTTNTKEGSNICLTRTDRGWYCDNAGSVSFFPQAETCKVQSNRVFCDTMNSLTLPSEINLCNVDIFNPKYDCKIMTSKTDVSSSVITSLGAIVSCYGKTKCTASNKNRGIIKTFSNGCDYVSNKGMDTVSVGNTLYCVNKQEGQSLYVKGEPIINFYDPLVFPSDEFDASISQVNEKINQSLAFIRKSDELL
notes: also called preRSVF; prefusion RSVF
Kd: 150 µM
